molecular target: HLA-A*02:01 (Homo sapiens, UniProt P04439, D140Y/D185E/D98H/E176V/E277Q/G131W/G231S/I119V/I121R/I166T/I218V/L300P/L318F/N151K/N90K/P208A/P217A/Q86G/Q94H/R138H/R169H/T345S); experiment: MHC binding assay (UV-ligand exchange, ELISA of exchange yield); conditions: binding to HLA-A*02:01, UV-ligand exchange
How it was run: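 ELISA of β2m retained on streptavidin-captured, 100-fold diluted complexes (HRP anti-β2m, TMB, 450 nm) gives the yield. Complexes come from UV-triggered exchange of a photocleavable placeholder peptide for the candidate, which must bind to stop complex dissociation.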

Peptide exchange (MHC class I binding score, peptide exchange yield) | Substance
“++” (≥20% = ++) | 191 (LLQEGQALEYV; listed as Homo sapiens) [compound 191]
“+++” (≥50 = +++) | 263 (LLVSNLDFGV; listed as Homo sapiens) [compound 263]
“+++” (≥50 = +++) | 135 (ALSEVDFQL; listed as Homo sapiens) [compound 135]
“+++” (≥50 = +++) | 488 (FLAEDPKVTL; listed as Homo sapiens) [compound 488]
“+++” (≥50 = +++) | 130 (FLWNGEDSALL; listed as Homo sapiens) [compound 130]
“+++” (≥50 = +++) | 35 (KINDTIYEV; listed as Homo sapiens) [compound 35]
“+++” (≥50 = +++) | 296 (FMEGAIIYV; listed as Homo sapiens) [compound 296]
“+++” (≥50 = +++) | 134 (YLQELIFSV; listed as Homo sapiens) [compound 134]
“++” (≥20% = ++) | 440 (ALADGVTMQV; listed as Homo sapiens) [compound 440]
“+++” (≥50 = +++) | 528 (SVAEGRALMSV; listed as Homo sapiens) [compound 528]
“+++” (≥50 = +++) | 315 (YLQDVVEQA; listed as Homo sapiens) [compound 315]
“++” (≥20% = ++) | 354 (LILEGVDTV; listed as Homo sapiens) [compound 354]
“+++” (≥50 = +++) | 122 (FLLAEDDIYL; listed as Homo sapiens) [compound 122]
“++” (≥20% = ++) | 84 (VTFGEKLLGV; listed as Homo sapiens) [compound 84]
“+++” (≥50 = +++) | 169 (NLPEYLPFV; listed as Homo sapiens) [compound 169]
“++” (≥20% = ++) | 233 (VLSETLYEL; listed as Homo sapiens) [compound 233]
“+++” (≥50 = +++) | 478 (YLLHEKLNL; listed as Homo sapiens) [compound 478]
“+++” (≥50 = +++) | 546 (VMIAGKVAVV; listed as Homo sapiens) [compound 546]
“++” (≥20% = ++) | 209 (KLIESKHEV; listed as Homo sapiens) [compound 209]
“++” (≥20% = ++) | 570 (ALANQIPTV; listed as Homo sapiens) [compound 570]
“++” (≥20% = ++) | 333 (FLPDANSSV; listed as Homo sapiens) [compound 333]
“+++” (≥50 = +++) | 448 (NLLETKLQL; listed as Homo sapiens) [compound 448]
“+++” (≥50 = +++) | 174 (ALAQYLITA; listed as Homo sapiens) [compound 174]
“+++” (≥50 = +++) | 314 (ALIAEGIALV; listed as Homo sapiens) [compound 314]
“+++” (≥50 = +++) | 635 (SLDSTLHAV; listed as Homo sapiens) [compound 635]

Peptide exchange (MHC class I binding score, peptide exchange yield) | Substance
“++++” (≥75% = ++++) | 77 (ILVEADGAWVV; listed as Homo sapiens) [compound 77]
“+++” (≥50 = +++) | 427 (ALLPLSPYL; listed as Homo sapiens) [compound 427]
“+++” (≥50 = +++) | 250 (ALSEEGLLVYL; listed as Homo sapiens) [compound 250]
“+++” (≥50 = +++) | 304 (MTLGQIYYL; listed as Homo sapiens) [compound 304]
“+++” (≥50 = +++) | 467 (FLAKDFNFL; listed as Homo sapiens) [compound 467]
“++++” (≥75% = ++++) | 329 (FLVTLNNVEV; listed as Homo sapiens) [compound 329]
“+++” (≥50 = +++) | 490 (FLLQHVQEL; listed as Homo sapiens) [compound 490]
“+++” (≥50 = +++) | 444 (GLLRDEALAEV; listed as Homo sapiens) [compound 444]
“++” (≥20% = ++) | 204 (KIAENVEEV; listed as Homo sapiens) [compound 204]
“+++” (≥50 = +++) | 179 (KVLNELYTV; listed as Homo sapiens) [compound 179]
“+++” (≥50 = +++) | 497 (GLLEKLTAI; listed as Homo sapiens) [compound 497]
“+++” (≥50 = +++) | 514 (ILVDWLVQV; listed as Homo sapiens) [compound 514]
“++” (≥20% = ++) | 274 (SLLFSLFEA; listed as Homo sapiens) [compound 274]
“+++” (≥50 = +++) | 206 (VLQEGKLQKLAQL; listed as Homo sapiens) [compound 206]
“+++” (≥50 = +++) | 29 (KMLGIPISNILMV; listed as Homo sapiens) [compound 29]
“+++” (≥50 = +++) | 302 (ALLQEGEVYSA; listed as Homo sapiens) [compound 302]
“+++” (≥50 = +++) | 342 (HIYDKVMTV; listed as Homo sapiens) [compound 342]
“++” (≥20% = ++) | 431 (SLVNVVPKL; listed as Homo sapiens) [compound 431]
“+++” (≥50 = +++) | 125 (VQIHQVAQV; listed as Homo sapiens) [compound 125]
“+++” (≥50 = +++) | 609 (ALWKQLLEL; listed as Homo sapiens) [compound 609]
“++” (≥20% = ++) | 511 (FLDPYCSASV; listed as Homo sapiens) [compound 511]
“+++” (≥50 = +++) | 531 (YTLPIASSIRL; listed as Homo sapiens) [compound 531]
“+++” (≥50 = +++) | 163 (ALDEMGDLLQL; listed as Homo sapiens) [compound 163]
“++” (≥20% = ++) | 590 (SLIEKLWQT; listed as Homo sapiens) [compound 590]
“++++” (≥75% = ++++) | 576 (ILLNNSGQIKL; listed as Homo sapiens) [compound 576]
